Where no end group is shown, it is not given here. [ ]: non-standard residue; d: D form. Sta = CC(C)C[C@H](N)[C@@H](O)CC(=O)O
Biological target: T1, recombinant human beta secretase (BACE), E. coli construct pQE70-BACE (human, UniProt P56817 57-453)
T1 construct: also called Asp2; memapsin 2
Assay: affinity chromatography, peptide immobilised on resin
Protocol: Prior to purification, the pH of the refolded protein was lowered from about 10 to 8.5 with HCl. The solution was loaded onto three 50 ml Q-Sepharose columns (Pharmacia Biotech XK 50). The columns were pre-equilibrated in 0.4 M Urea, 10 mM AMPSO, pH 8.5. After refolded protein was loaded onto the columns, they were washed with 500 ml of 0.4 M Urea, 10 mM TRIS, pH 8.2. The columns were eluted with 180-245 ml of 0.75 M NaCl in 0.4 M Urea 10 mM TRIS buffer, pH 8.2. The eluates were then dialyzed versus 20 mM HEPES, pH 8.0. The samples were then removed from dialysis and dropped into 1 M NaMES, pH 5.7 (0.1 M final concentration). After centrifugation (20 K×g) the supernatant was dropped into 1 M Na-acetate, 1 M NaMES, pH 5.0 (0.2 M Na-acetate, 0.28 M Na-MES was the final concentration). […] This solution was then applied to a 15 ml affinity column equilibrated at the same pH. The column was washed with 6 column volumes of 20 mM sodium acetate buffer pH 4.5, 150 mM NaCl. BACE was eluted at pH 8.5 using about 50 ml of 0.1 M borate buffer. This final step removed any residual contaminants. From 40 liter of *E. coli* cell culture, the amount of protein obtained was 137 mg of highly purified pQE70-BACE construct. Purified pQE70-BACE was dialyzed into 100 mM NaBorate pH 8.5.

T1 sequence (P56817 other isoform, or with tags, fused parts or gaps limits assumed): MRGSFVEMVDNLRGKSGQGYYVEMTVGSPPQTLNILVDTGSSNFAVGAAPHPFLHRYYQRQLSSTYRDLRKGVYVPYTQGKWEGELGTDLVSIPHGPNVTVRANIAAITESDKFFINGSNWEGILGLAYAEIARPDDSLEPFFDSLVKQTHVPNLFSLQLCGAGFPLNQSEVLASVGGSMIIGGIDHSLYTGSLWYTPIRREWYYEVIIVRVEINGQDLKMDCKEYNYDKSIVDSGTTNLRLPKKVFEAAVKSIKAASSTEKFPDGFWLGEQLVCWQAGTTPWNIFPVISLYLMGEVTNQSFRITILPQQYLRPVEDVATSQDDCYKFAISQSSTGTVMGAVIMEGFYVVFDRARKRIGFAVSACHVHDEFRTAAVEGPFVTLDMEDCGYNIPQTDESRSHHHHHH

- binding result: binds
Binder: SEVN[Sta]VAEFRGGC [synthetic peptide Ser-Glu-Val-Asn-Sta-Val-Ala-Glu-Phe-Arg-Gly-Gly-Cys (where Sta=statine)]
